Test results published in patent US20240024475A1 (CURE GENETICS, published 2024).

T1: recombinant human CD70 protein (Acrobiosystems: CDL-H82Q9) (human, UniProt P32970 39-193)
T1 construct: Bought from Acrobiosystems; The whole natural entry is named; also called human CD70His fusion protein; recombinant human CD70 antigen having a C-terminal human IgG Fc tag
T1 sequence (looked up): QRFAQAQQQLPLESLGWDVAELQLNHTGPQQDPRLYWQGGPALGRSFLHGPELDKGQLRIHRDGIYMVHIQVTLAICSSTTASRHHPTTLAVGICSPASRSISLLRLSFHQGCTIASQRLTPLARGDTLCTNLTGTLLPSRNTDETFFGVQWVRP

B1: CD70KO-CAR-3H (receptor)
chimeric antigen receptor chain: QLQLVESGGGLVQPGGSLRLSCAASGNILRFNAVGWYRQAPGKQRDLVAAMAGARTNYADSVEGRFTISGNNANNTVYLQMNSLKPEDTGVYYCGADRVYGPPYEYGGRGTQVTVLSTTTPAPRPPTPAPTIASQPLSLRPEACRPAAGGAVHTRGLDFACDIYIWAPLAGTCGVLLLSLVITLYCKRGRKKLLYIFKQPFMRPVQTTQEEDGCSCRFPEEEEGGCELRVKFSRSADAPAYKQGQNQLYNELNLGRREEYDVLDKRRGRDPEMGGKPRRKNPQEGLYNELQKDKMAEAYSEIGMKGERRRGKGHDGLYQGLSTATKDTYDALHMQALPPR
notes: The sheet names the CD70-knockout T cells that carry CD70-CAR-3H; also called CD70-CAR-3H
B2: CD70KO-CAR-5B (receptor)
chimeric antigen receptor chain: QVQLVESGGGLVQAGGSLRLSCAASGFTFDDYAIGWFRQAPGKEPEGVSCFRSSDGNIYYSDSVRGRFTISSDNAKNTVYLQMNRLKPEDTAVYYCAAYSVLLRPWVLCEGSYDYWGQGTQVTVSSTTTPAPRPPTPAPTIASQPLSLRPEACRPAAGGAVHTRGLDFACDIYIWAPLAGTCGVLLLSLVITLYCKRGRKKLLYIFKQPFMRPVQTTQEEDGCSCRFPEEEEGGCELRVKFSRSADAPAYKQGQNQLYNELNLGRREEYDVLDKRRGRDPEMGGKPRRKNPQEGLYNELQKDKMAEAYSEIGMKGERRRGKGHDGLYQGLSTATKDTYDALHMQALPPR
notes: The sheet names the CD70-knockout T cells that carry CD70-CAR-5B; also called CD70-CAR-5B
B3: CD70KO-CAR-1E (receptor)
chimeric antigen receptor chain: EVQVVESGGGLVQAGGSLRLSCAASGFAFDDYAIGWFRQAPGKEQERVSCMSSSDGSTYYADSVKGRFTISSDNAKNTVYLQMNSLKPEDTAVYYCAAGVNYYREDGCPGALDYWGQGTQVTVSSTTTPAPRPPTPAPTIASQPLSLRPEACRPAAGGAVHTRGLDFACDIYIWAPLAGTCGVLLLSLVITLYCKRGRKKLLYIFKQPFMRPVQTTQEEDGCSCRFPEEEEGGCELRVKFSRSADAPAYKQGQNQLYNELNLGRREEYDVLDKRRGRDPEMGGKPRRKNPQEGLYNELQKDKMAEAYSEIGMKGERRRGKGHDGLYQGLSTATKDTYDALHMQALPPR
notes: The sheet names the CD70-knockout T cells that carry CD70-CAR-1E; also called CD70-CAR-1E
B4: CD70KO-CAR-L1 (receptor)
chimeric antigen receptor chain: EVQVVESGGGLVQAGGSLRLSCAASGRTFSSYAMGWVRQAPGKDQEFVAAINWSDGSTYYADSVKGRFTIARDNAKNTAFLQMNSLKPEDTAVYYCAAGCCGVADAPLNALDAWGQGTLVTVSSTTTPAPRPPTPAPTIASQPLSLRPEACRPAAGGAVHTRGLDFACDIYIWAPLAGTCGVLLLSLVITLYCKRGRKKLLYIFKQPFMRPVQTTQEEDGCSCRFPEEEEGGCELRVKFSRSADAPAYKQGQNQLYNELNLGRREEYDVLDKRRGRDPEMGGKPRRKNPQEGLYNELQKDKMAEAYSEIGMKGERRRGKGHDGLYQGLSTATKDTYDALHMQALPPR
notes: The sheet names the CD70-knockout T cells that carry CD70-CAR-L1; also called CD70-CAR-L1
B5: CD70KO-CAR-7D (receptor)
chimeric antigen receptor chain: EVQLVESGGGLVQAGGSLRLSCAASGFTFDDYAIGWFRQAPGKEQEGVSCIRRSDGSTWYANSVKGRFTISNDNAKNTVYLQMNSLKPEDTAVYYCAVDRYGQSWHEGRGALDAWGQGTLVTVSSTTTPAPRPPTPAPTIASQPLSLRPEACRPAAGGAVHTRGLDFACDIYIWAPLAGTCGVLLLSLVITLYCKRGRKKLLYIFKQPFMRPVQTTQEEDGCSCRFPEEEEGGCELRVKFSRSADAPAYKQGQNQLYNELNLGRREEYDVLDKRRGRDPEMGGKPRRKNPQEGLYNELQKDKMAEAYSEIGMKGERRRGKGHDGLYQGLSTATKDTYDALHMQALPPR
notes: The sheet names the CD70-knockout T cells that carry CD70-CAR-7D; also called CD70-CAR-7D
B6: CD70KO-CAR-1G (receptor)
chimeric antigen receptor chain: QLQLVESGGGLVQLGGSLTLSCTASGIIFNSDYVGWYRQAPGSDRELVALTSNMRTNYADSVEGRFTISRDNAKNTVYLQMNSLKPEDTAVYYCNVNRMTSYGPRDYWGQGTQVTVSSTTTPAPRPPTPAPTIASQPLSLRPEACRPAAGGAVHTRGLDFACDIYIWAPLAGTCGVLLLSLVITLYCKRGRKKLLYIFKQPFMRPVQTTQEEDGCSCRFPEEEEGGCELRVKFSRSADAPAYKQGQNQLYNELNLGRREEYDVLDKRRGRDPEMGGKPRRKNPQEGLYNELQKDKMAEAYSEIGMKGERRRGKGHDGLYQGLSTATKDTYDALHMQALPPR
notes: The sheet names the CD70-knockout T cells that carry CD70-CAR-1G; also called CD70-CAR-1G
B7: CD70KO-CAR-5H (receptor)
chimeric antigen receptor chain: EVQLVESGGGMVQAGGSLRLSCAAPGKIFSFYFMGWYRQAPGKQRELVALITGDGRTNYADSVEGRFTISRDNAKNTVYLQMNSLKPEDTAVYYCYADVFARAGRDEYWGQGTQVSVSSTTTPAPRPPTPAPTIASQPLSLRPEACRPAAGGAVHTRGLDFACDIYIWAPLAGTCGVLLLSLVITLYCKRGRKKLLYIFKQPFMRPVQTTQEEDGCSCRFPEEEEGGCELRVKFSRSADAPAYKQGQNQLYNELNLGRREEYDVLDKRRGRDPEMGGKPRRKNPQEGLYNELQKDKMAEAYSEIGMKGERRRGKGHDGLYQGLSTATKDTYDALHMQALPPR
notes: The sheet names the CD70-knockout T cells that carry CD70-CAR-5H; also called CD70-CAR-5H
B8: CD70KO-CAR-5A (receptor)
chimeric antigen receptor chain: EVQLVESGGGLVQAGGSLRLSCAASESIFNNYVMAWYRQPPGKQREAVAQISTDGSAYYQDRVKGRFTISRDNAKNLVNLQMSSLKPEDTAVYYCTAGLQYWGQGTQVTVSSTTTPAPRPPTPAPTIASQPLSLRPEACRPAAGGAVHTRGLDFACDIYIWAPLAGTCGVLLLSLVITLYCKRGRKKLLYIFKQPFMRPVQTTQEEDGCSCRFPEEEEGGCELRVKFSRSADAPAYKQGQNQLYNELNLGRREEYDVLDKRRGRDPEMGGKPRRKNPQEGLYNELQKDKMAEAYSEIGMKGERRRGKGHDGLYQGLSTATKDTYDALHMQALPPR
notes: The sheet names the CD70-knockout T cells that carry CD70-CAR-5A; also called CD70-CAR-5A
B9: CD70KO-CAR-L2 (receptor)
chimeric antigen receptor chain: EVQLVESGGGLVQAGGSLRLSCAASGFTVDDYVIGWFRQAPGKEHEGVSCISSNDGSTWYADSVKGRFTISSDNAKNTMYLQMNSLKPEDTAVYYCAAKYAPYGLEYWEGGMDYWGKGTLVTVSSTTTPAPRPPTPAPTIASQPLSLRPEACRPAAGGAVHTRGLDFACDIYIWAPLAGTCGVLLLSLVITLYCKRGRKKLLYIFKQPFMRPVQTTQEEDGCSCRFPEEEEGGCELRVKFSRSADAPAYKQGQNQLYNELNLGRREEYDVLDKRRGRDPEMGGKPRRKNPQEGLYNELQKDKMAEAYSEIGMKGERRRGKGHDGLYQGLSTATKDTYDALHMQALPPR
notes: The sheet names the CD70-knockout T cells that carry CD70-CAR-L2; also called CD70-CAR-L2

Target: T1, recombinant human CD70 protein …
Experiment: flow cytometry: CAR on CD70-knockout T cells stained with biotinylated human CD70 protein (100 µg/ml) and PE-Streptavidin
Method: The expression of the CAR targeting CD70 prepared in example 5 in T cells in each group was detected by fluorescence antibody staining and flow cytometry. The specific steps were as follows: CAR-T cells targeting CD70 with lentivirus infection for 48 h, T cells without lentivirus infection and T-KO cells without lentivirus infection were respectively collected by centrifugation; biotinylated human CD70 protein (100 μg/ml) (Acrobiosystems: CDL-H82Q9) was added; and the mixture was incubated at 4° C. in the dark for 30 min, and then washed once with PBS after the incubation. After resuspending in an appropriate volume of PBS, a second antibody PE-Streptavidin (BD Biosciences: 554061) was added to the cells, and the mixture was incubated at 4° C. in the dark for 20 min, washed once with PBS and then resuspended in an appropriate volume of PBS. Finally, the expression efficiency of the CAR targeting CD70 on the surface of the T cells in which CD70 was knocked out was detected using a flow cytometer.

POS (% of cells in the CD70-PE positive gate)	Binder
70.8%	B1
57.8%	B2
63.9%	B3
82.5%	B4
78.4%	B5
57.5%	B6
58.9%	B7
74.9%	B8
62.6%	B9
